Positions count from the first letter of the chain named.
Key:
[1] = target: T1, soluble mouse IL-31 receptor (mouse, UniProt Q8K5B1 19-499); experiment: SPR Biacore T100, 25C, pH 5.5; antibody captured on protein A/G chip, soluble mouse IL-31 receptor analyte; pH 5.5
T1 construct: Soluble form
T1 sequence (looked up): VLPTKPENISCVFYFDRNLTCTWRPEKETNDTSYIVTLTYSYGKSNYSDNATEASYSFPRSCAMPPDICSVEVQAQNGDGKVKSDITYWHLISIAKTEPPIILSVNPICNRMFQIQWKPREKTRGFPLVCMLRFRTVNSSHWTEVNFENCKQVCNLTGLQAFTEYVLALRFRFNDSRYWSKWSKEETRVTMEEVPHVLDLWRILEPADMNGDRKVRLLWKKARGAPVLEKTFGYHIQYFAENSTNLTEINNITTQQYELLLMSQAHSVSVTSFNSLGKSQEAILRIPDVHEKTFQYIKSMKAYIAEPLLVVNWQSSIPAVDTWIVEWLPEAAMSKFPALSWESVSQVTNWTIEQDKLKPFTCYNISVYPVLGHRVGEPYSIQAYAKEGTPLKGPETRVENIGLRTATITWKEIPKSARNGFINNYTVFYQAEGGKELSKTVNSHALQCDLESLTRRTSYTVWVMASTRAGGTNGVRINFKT
Method: Kinetic analysis of antigen-antibody reactions at pH 5.5 and pH 7.4 was carried out using a Biacore T100™ surface plasmon resonance system (GE Healthcare) for the two types of antibodies prepared as mentioned above: Anti-IL31R wild type and Anti-IL31R clone 1 (buffer: DPBS(−) (pH 7.4 or pH 5.5), 150 mM NaCl, 0.01% TWEEN® 20 (polyoxyethelene sorbitan monolaurate), 0.02% NaN₃). The antibodies were bound to a sensor chip on which recomb-protein A/G (Pierce) was immobilized by amine coupling, and then the soluble mouse IL-31 receptor (prepared according to the method described in WO 2007/142325) adjusted to an appropriate concentration was injected therein as an analyte. All the measurements were carried out at 25° C. Association rate constants kₐ (1/Ms) and dissociation rate constants kd (1/s) were calculated using Biacore T100™ Evaluation Software (GE Healthcare), and dissociation constants KD (M) were calculated based on those values (Table 16). Furthermore, the ratio of affinity at pH 5.5 and pH 7.4 was calculated for each clone to evaluate the pH-dependent binding.

[2] = target: T2, recombinant soluble human IL-6 receptor (SR344) (human, UniProt P08887 20-344); experiment: SPR Biacore T100, 37C; antibody captured on protein A/G chip, SR344 analyte; pH 5.8 vs pH 7.4
T2 construct: In the membrane-type IL-6 receptor assays the same protein was biotinylated and immobilised on the sensor chip via streptavidin, as stated under assay; also called soluble IL-6 receptor; membrane-type IL-6 receptor (as biotinylated SR344 immobilised on the chip)
T2 sequence (looked up): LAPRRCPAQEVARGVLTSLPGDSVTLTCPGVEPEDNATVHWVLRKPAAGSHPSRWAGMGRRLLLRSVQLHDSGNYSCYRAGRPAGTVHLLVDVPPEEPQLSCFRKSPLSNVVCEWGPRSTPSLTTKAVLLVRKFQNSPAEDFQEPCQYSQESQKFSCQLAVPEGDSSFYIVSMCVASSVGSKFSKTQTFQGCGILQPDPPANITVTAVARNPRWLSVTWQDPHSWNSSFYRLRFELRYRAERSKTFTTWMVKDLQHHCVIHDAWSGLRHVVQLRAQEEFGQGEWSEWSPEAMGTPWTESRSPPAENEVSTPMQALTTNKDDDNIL
Method: Kinetic analyses of antigen-antibody reactions at pH 5.8 and pH 7.4 were carried out using a Biacore™ T100 surface plasmon resonance system (GE Healthcare) on the four antibodies: humanized PM1 antibody (WT) and H3pI/L73, CLH5/L73, and H170/L82 produced in Examples 2 and 4 (buffer: 10 mM MES (pH 7.4 or pH 5.8), 150 mM NaCl, and 0.05% TWEEN® 20 (polyoxyethelene sorbitan monolaurate)). Various antibodies were bound onto a sensor chip immobilized with recomb-protein A/G (Pierce) by amine coupling. SR344 adjusted to concentrations of 9.8 to 400 nM was injected to the chip as an analyte. […] All the measurements were carried out at 37° C. Association rate constants kₐ (1/Ms) and dissociation rate constants kd (1/s) were calculated using Biacore T100™ Evaluation Software (GE Healthcare), and dissociation constants KD (M) were calculated on the basis of those values (Table 5). Moreover, the ratio of the affinities at pH 5.8 and pH 7.4 were calculated for each clone to evaluate pH-dependent binding. All the measurements were carried out at 37° C.

B1: Anti-IL31R wild type (antibody, human IgG1, lambda, V domains shown)
VH: not shown
VL: LPVLTQPPSVSVAPGQTARITCGGNNIGSKTVYWYQQEPGQAPVLVVYDDTDRPAGIPERFSGANSGNTATLTISRVEAGDEADYYCQVWDSSTDHGVFGGGTKLTVLG
notes: Antibody described in WO 2007/142325; also called anti-IL-31 receptor antibody H chain (WT)/L chain (WT)
kon [1]: 51000 M⁻¹ s⁻¹

B2: H3pI/L73 (antibody, IgG1, V domains shown)
VH: QVQLQESGPGLVKPSETLSLTCAVSGHSISHDHAHSWVRQPPGEGLEWIGYISYSGITNYNPSLKGRVTISRDTSKNQFSLKLSSVTAADTAAYYCARSLARTTAMDYWGEGTLVTVSS
VL: DIQMTQSPSSLSASVGDSVTITCQASQHISSHLNWYQQKPGKAPELLIYYGSHLHSGVPSRFSGSGSGTDFTFTISSLEAEDAATYYCGQGNRLPYTFGQGTKVEIE
notes: Tested as IgG1; also called H3pI/L73-IgG1; H3pl/L73
affinity ratio between pH 5.8 and pH 7.4 [2]: 41 fold

B3: H170/L82 (antibody, IgG1, V domains shown)
VH: B2 VH with D32H, N59H, S63H, S99V, T103I, Y108H
VL: B2 VL with H28D
notes: Tested as IgG1; also called H170/L82-IgG1
affinity ratio between pH 5.8 and pH 7.4 [2]: 394 fold

B4: CLH5/L73 (antibody, IgG1, V domains shown)
VH: B2 VH with H27Y, H35W, Y51H, S63H, S99F, T103I, M106H, Y108H
VL: B2 VL
notes: Expressed and purified as IgG
affinity ratio between pH 5.8 and pH 7.4 [2]: 66 fold
